Assay results as given in the supplement of paper PMC9112550, “Optimization of the antimicrobial peptide Bac7 by deep mutational scanning” (BMC Biology, 2022).

tested on: Escherichia coli TOP10; assay: shrunken log2 fold change of peptide-encoding DNA abundance (4.5 h post-induction vs induction); higher = less antimicrobial activity (less host growth inhibition); settings: time post-induction: 4.5 h; library: site-saturation at positions 5, 18, 19, 20
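Note: peptides expressed intracellularly from a pBAD plasmid library in pooled LB shake-flask culture, induced with 0.3% L-arabinose, DNA abundance read by NGS, three biological replicates, DESeq2 with apeglm shrinkage.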

Point of comparison: RRIRDRPPRLPRPRPRPVACPRP, “shrunken log2 fold change” value 0.35. Against it:
- RRIRWRPPRLPRPRPRPTATPRP — within 0.2 log units, 0.528
- RRIRARPPRLPRPRPRPVMRPRP — within 0.2 log units, 0.292
- RRIRLRPPRLPRPRPRPWYFPRP — lower, -0.231
- RRIRRRPPRLPRPRPRPALSPRP — within 0.2 log units, 0.528
- RRIRCRPPRLPRPRPRPPEMPRP — higher, 0.67
- RRIRDRPPRLPRPRPRPQWLPRP — within 0.2 log units, 0.24
- RRIRRRPPRLPRPRPRPIYDPRP — lower, -0.0515
- RRIRYRPPRLPRPRPRPNLWPRP — lower, 0.00221
- RRIRQRPPRLPRPRPRPASQPRP — lower, 0.0572
- RRIRTRPPRLPRPRPRPQVFPRP — lower, -0.0243
- RRIRPRPPRLPRPRPRPCQVPRP — lower, -0.132
- RRIRARPPRLPRPRPRPQCSPRP — lower, 0.111
- RRIRPRPPRLPRPRPRPRNAPRP — within 0.2 log units, 0.39
- RRIRVRPPRLPRPRPRPHLIPRP — lower, -0.352
- RRIRQRPPRLPRPRPRPSTHPRP — lower, -0.465
- RRIRNRPPRLPRPRPRPAYFPRP — lower, -0.175
- RRIRNRPPRLPRPRPRPSQGPRP — lower, -0.154
- RRIRQRPPRLPRPRPRPEWFPRP — lower, -0.00295
- RRIRLRPPRLPRPRPRPFVRPRP — lower, 0.00108
- RRIRVRPPRLPRPRPRPCTDPRP — lower, -0.46
- RRIRHRPPRLPRPRPRPTPDPRP — lower, 0.134
- RRIRCRPPRLPRPRPRPVICPRP — lower, -0.241
- RRIRMRPPRLPRPRPRPNFMPRP — lower, -0.0364
- RRIRMRPPRLPRPRPRPTISPRP — lower, 0.0688
- RRIRTRPPRLPRPRPRPSCWPRP — lower, 0.00851
- RRIRSRPPRLPRPRPRPKIQPRP — lower, -0.311
- RRIRRRPPRLPRPRPRPYINPRP — lower, -0.832
- RRIRYRPPRLPRPRPRPTVAPRP — lower, 0.0691
- RRIRERPPRLPRPRPRPAISPRP — lower, -0.691
- RRIRWRPPRLPRPRPRPTQYPRP — lower, 0.0537
- RRIRKRPPRLPRPRPRPPKPPRP — within 0.2 log units, 0.319
- RRIRGRPPRLPRPRPRPTEWPRP — higher, 1.23
- RRIRFRPPRLPRPRPRPLDWPRP — lower, -0.119
- RRIRGRPPRLPRPRPRPTNLPRP — lower, -0.0172
- RRIRVRPPRLPRPRPRPPKSPRP — lower, 0.1
- RRIRSRPPRLPRPRPRPKYSPRP — lower, -0.253
- RRIRDRPPRLPRPRPRPFCAPRP — higher, 0.652
- RRIRKRPPRLPRPRPRPADNPRP — lower, 0.0284
- RRIRFRPPRLPRPRPRPTIWPRP — lower, -0.000248
- RRIRCRPPRLPRPRPRPPTNPRP — within 0.2 log units, 0.248
- RRIRNRPPRLPRPRPRPRRQPRP — within 0.2 log units, 0.227
- RRIRKRPPRLPRPRPRPRWSPRP — higher, 0.559
- RRIRTRPPRLPRPRPRPCAAPRP — lower, 0.0451
- RRIRDRPPRLPRPRPRPDEEPRP — lower, -0.00164
- RRIRRRPPRLPRPRPRPIPNPRP — within 0.2 log units, 0.349
- RRIRIRPPRLPRPRPRPEAEPRP — higher, 0.677
- RRIRMRPPRLPRPRPRPIKKPRP — lower, 0.0441
- RRIRLRPPRLPRPRPRPAFTPRP — within 0.2 log units, 0.238
- RRIRNRPPRLPRPRPRPMRTPRP — within 0.2 log units, 0.312
- RRIRNRPPRLPRPRPRPITLPRP — lower, -0.229
- RRIRRRPPRLPRPRPRPNFKPRP — lower, 0.092
- RRIRARPPRLPRPRPRPLGSPRP — within 0.2 log units, 0.471
- RRIRDRPPRLPRPRPRPMGQPRP — lower, 0.0515
- RRIRERPPRLPRPRPRPSHFPRP — lower, 0.000406
- RRIRGRPPRLPRPRPRPMSYPRP — lower, 0.0417
- RRIRCRPPRLPRPRPRPGFHPRP — lower, -0.435
- RRIRMRPPRLPRPRPRPENNPRP — higher, 1.53
- RRIRSRPPRLPRPRPRPMYEPRP — lower, 0.0571
- RRIRRRPPRLPRPRPRPGDLPRP — higher, 1.58
- RRIRQRPPRLPRPRPRPKHVPRP — lower, -0.067
- RRIRGRPPRLPRPRPRPWNPPRP — lower, -0.448
- RRIRPRPPRLPRPRPRPPDPPRP — higher, 0.742
- RRIRFRPPRLPRPRPRPCLYPRP — lower, -0.881
- RRIRKRPPRLPRPRPRPNEYPRP — lower, 0.0869
- RRIRARPPRLPRPRPRPNKNPRP — lower, 0.0222
- RRIRARPPRLPRPRPRPYISPRP — lower, -0.132
- RRIRIRPPRLPRPRPRPYYWPRP — lower, -0.449
- RRIRFRPPRLPRPRPRPMPFPRP — lower, -0.0201
- RRIRGRPPRLPRPRPRPWIMPRP — lower, -0.209
- RRIRNRPPRLPRPRPRPRFIPRP — lower, -0.533
- RRIRFRPPRLPRPRPRPQYGPRP — lower, -0.0328
- RRIRARPPRLPRPRPRPGQLPRP — within 0.2 log units, 0.359
- RRIRGRPPRLPRPRPRPPQGPRP — higher, 0.812
- RRIRYRPPRLPRPRPRPWINPRP — lower, -0.803
- RRIRERPPRLPRPRPRPHASPRP — lower, -0.346
- RRIRSRPPRLPRPRPRPPYPPRP — lower, 0.0516
- RRIRTRPPRLPRPRPRPCNDPRP — lower, -0.145
- RRIRYRPPRLPRPRPRPHKTPRP — lower, -0.0572
- RRIRTRPPRLPRPRPRPAMKPRP — lower, -0.125
- RRIRARPPRLPRPRPRPLSKPRP — lower, -0.0286
- RRIRWRPPRLPRPRPRPETKPRP — within 0.2 log units, 0.285
- RRIRVRPPRLPRPRPRPCHNPRP — lower, -0.362
- RRIRERPPRLPRPRPRPHLLPRP — lower, 0.0196
- RRIRFRPPRLPRPRPRPFTNPRP — lower, -0.125
- RRIRQRPPRLPRPRPRPHKMPRP — within 0.2 log units, 0.246
- RRIRLRPPRLPRPRPRPSRCPRP — lower, 0.05
- RRIRWRPPRLPRPRPRPIDEPRP — lower, 0.0867
- RRIRIRPPRLPRPRPRPGLMPRP — lower, -0.0194
- RRIRKRPPRLPRPRPRPLFQPRP — within 0.2 log units, 0.181
- RRIRFRPPRLPRPRPRPDSGPRP — lower, -0.0156
- RRIRYRPPRLPRPRPRPFQWPRP — lower, 0.0299
- RRIRRRPPRLPRPRPRPGQMPRP — lower, 0.0545
- RRIRARPPRLPRPRPRPQQEPRP — lower, -0.0196
- RRIRRRPPRLPRPRPRPKKEPRP — lower, -0.0417
- RRIRPRPPRLPRPRPRPIDCPRP — lower, -0.0101
- RRIRGRPPRLPRPRPRPPQHPRP — higher, 0.789
- RRIRARPPRLPRPRPRPWWQPRP — lower, 0.00618
- RRIRKRPPRLPRPRPRPIQYPRP — lower, -0.193
- RRIRRRPPRLPRPRPRPHEKPRP — lower, 0.0358
- RRIRGRPPRLPRPRPRPFHLPRP — lower, -0.391
- RRIRRRPPRLPRPRPRPEWIPRP — within 0.2 log units, 0.361
- RRIRCRPPRLPRPRPRPGRHPRP — lower, 0.105
- RRIRRRPPRLPRPRPRPSINPRP — lower, -0.13
- RRIRMRPPRLPRPRPRPGSQPRP — higher, 0.926
- RRIRGRPPRLPRPRPRPGVPPRP — higher, 1
- RRIRGRPPRLPRPRPRPFSLPRP — lower, -0.693
- RRIRTRPPRLPRPRPRPWWDPRP — lower, 0.132
- RRIRGRPPRLPRPRPRPADPPRP — higher, 0.585
- RRIRGRPPRLPRPRPRPTEEPRP — within 0.2 log units, 0.525
- RRIRCRPPRLPRPRPRPGYHPRP — lower, -0.997
- RRIRMRPPRLPRPRPRPEAQPRP — higher, 3.76
- RRIRHRPPRLPRPRPRPNTVPRP — lower, 0.0932
- RRIRPRPPRLPRPRPRPEIKPRP — lower, 0.0782
- RRIRPRPPRLPRPRPRPSFIPRP — lower, -0.601
- RRIRVRPPRLPRPRPRPVPYPRP — lower, -0.0265
- RRIRKRPPRLPRPRPRPHTNPRP — within 0.2 log units, 0.192
- RRIRWRPPRLPRPRPRPGMSPRP — higher, 0.893
- RRIRHRPPRLPRPRPRPPLCPRP — lower, 0.0792
- RRIRNRPPRLPRPRPRPATQPRP — lower, -0.0108
- RRIRWRPPRLPRPRPRPFQAPRP — lower, -0.222
- RRIRRRPPRLPRPRPRPWMGPRP — lower, -0.127
- RRIRVRPPRLPRPRPRPWTYPRP — lower, -1.3
- RRIRTRPPRLPRPRPRPCRYPRP — lower, 0.0413
- RRIRDRPPRLPRPRPRPHHSPRP — lower, -1.11
- RRIRARPPRLPRPRPRPKHKPRP — within 0.2 log units, 0.172
- RRIRTRPPRLPRPRPRPQINPRP — lower, -0.348
- RRIRFRPPRLPRPRPRPQYLPRP — lower, -0.329
- RRIRFRPPRLPRPRPRPNYHPRP — lower, -0.758
- RRIRPRPPRLPRPRPRPCFFPRP — lower, -0.0762
- RRIRRRPPRLPRPRPRPVSRPRP — lower, -0.0137
- RRIRNRPPRLPRPRPRPVKHPRP — lower, -0.23
- RRIRARPPRLPRPRPRPYTMPRP — lower, -0.301
- RRIRIRPPRLPRPRPRPIVMPRP — lower, -0.0726
- RRIRARPPRLPRPRPRPNLNPRP — lower, -0.0397
- RRIRQRPPRLPRPRPRPMKDPRP — lower, -0.447
- RRIRCRPPRLPRPRPRPNHKPRP — lower, -0.862
- RRIRCRPPRLPRPRPRPGASPRP — within 0.2 log units, 0.519
- RRIRSRPPRLPRPRPRPVGKPRP — lower, -0.0806
- RRIRRRPPRLPRPRPRPINHPRP — lower, -0.273
- RRIRFRPPRLPRPRPRPHDTPRP — lower, -0.535
- RRIRLRPPRLPRPRPRPTNSPRP — lower, -0.355
- RRIRKRPPRLPRPRPRPVRSPRP — higher, 2.24
- RRIRCRPPRLPRPRPRPARSPRP — within 0.2 log units, 0.261
- RRIRNRPPRLPRPRPRPRFRPRP — lower, 0.0503
- RRIRNRPPRLPRPRPRPANEPRP — lower, -0.00326
- RRIRRRPPRLPRPRPRPNMLPRP — lower, -0.061
- RRIRVRPPRLPRPRPRPYINPRP — lower, -0.724
- RRIRTRPPRLPRPRPRPWPFPRP — lower, -0.0102
- RRIRHRPPRLPRPRPRPHKTPRP — lower, 0.00711
